Each block holds one binder with its values, some of them ahead of it.
What was measured:
[1] = target: T1, human LOX1 on cells (human LOX1 transfected CHO TREX cells) (human, UniProt P78380 1-273); test: cell-based or functional assay
Human CLEC-7A (Dectin-1) = target: T2, Human CLEC-7A (Dectin-1) (human, UniProt Q9BXN2-2 66-201, limits assumed); test: IgG binding ELISA on coated antigen, absorbance at 450 nm
T2 construct: Bought protein; also called C-type lectin domain family 7 member A
T2 sequence (looked up): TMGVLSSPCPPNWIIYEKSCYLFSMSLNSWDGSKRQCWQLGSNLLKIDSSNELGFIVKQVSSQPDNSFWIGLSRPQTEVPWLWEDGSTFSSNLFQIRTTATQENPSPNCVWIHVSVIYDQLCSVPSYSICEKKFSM

Human CLEC-1A = target: T3, Human CLEC-1A (human, UniProt Q8NC01 74-280, limits assumed); test: as above
T3 construct: Bought protein; also called C-type lectin domain family 1 member A
T3 sequence (looked up): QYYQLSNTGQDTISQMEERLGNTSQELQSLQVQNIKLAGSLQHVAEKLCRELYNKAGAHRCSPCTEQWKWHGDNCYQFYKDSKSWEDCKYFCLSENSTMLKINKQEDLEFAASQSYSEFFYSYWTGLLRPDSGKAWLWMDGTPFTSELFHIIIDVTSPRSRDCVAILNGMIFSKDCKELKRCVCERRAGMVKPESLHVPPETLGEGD

Human CLEC-4L (DC-SIGN) = target: T4, Human CLEC-4L (DC-SIGN) (human, UniProt Q9NNX6 62-404); test: as above
T4 construct: Bought protein; also called C-type lectin domain family 4 member L
T4 sequence (looked up): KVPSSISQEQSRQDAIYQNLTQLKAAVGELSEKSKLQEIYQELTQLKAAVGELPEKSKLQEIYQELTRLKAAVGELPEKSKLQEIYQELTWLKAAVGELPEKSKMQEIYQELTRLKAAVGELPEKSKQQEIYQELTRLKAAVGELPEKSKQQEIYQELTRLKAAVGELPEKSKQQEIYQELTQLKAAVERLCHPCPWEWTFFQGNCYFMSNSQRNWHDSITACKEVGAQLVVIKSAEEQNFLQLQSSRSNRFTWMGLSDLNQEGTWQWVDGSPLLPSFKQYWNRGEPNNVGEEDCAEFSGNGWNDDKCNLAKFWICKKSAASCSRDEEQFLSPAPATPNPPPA

Human CLEC-1B (CLEC-2) = target: T5, Human CLEC-1B (CLEC-2) (human, UniProt Q9P126 58-229, limits assumed); test: as above
T5 construct: Bought protein; also called C-type lectin domain family 1 member B
T5 sequence (Q9P126 58-229 limits assumed): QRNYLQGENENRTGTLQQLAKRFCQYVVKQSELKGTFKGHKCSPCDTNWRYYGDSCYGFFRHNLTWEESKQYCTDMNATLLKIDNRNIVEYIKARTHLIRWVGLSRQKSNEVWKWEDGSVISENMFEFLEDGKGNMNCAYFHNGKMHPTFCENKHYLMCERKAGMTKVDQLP

Human SR-A1 (MSR) = target: T6, Human SR-A1 (MSR) (human, UniProt P21757 77-451); test: as above
T6 construct: Bought protein; also called Macrophage scavenger receptor types I and II
T6 sequence (looked up): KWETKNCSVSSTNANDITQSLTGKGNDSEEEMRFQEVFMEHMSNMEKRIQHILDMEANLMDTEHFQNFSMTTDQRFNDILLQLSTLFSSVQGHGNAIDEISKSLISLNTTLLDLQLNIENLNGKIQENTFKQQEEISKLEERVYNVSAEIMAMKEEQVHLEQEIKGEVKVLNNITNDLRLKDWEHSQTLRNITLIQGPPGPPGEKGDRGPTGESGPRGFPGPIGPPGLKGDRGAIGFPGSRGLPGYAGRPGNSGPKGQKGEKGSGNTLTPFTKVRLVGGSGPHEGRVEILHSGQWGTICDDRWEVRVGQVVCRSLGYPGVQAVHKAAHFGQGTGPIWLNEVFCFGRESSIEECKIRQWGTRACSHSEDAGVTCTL

Human SR-B3 (CD36) = target: T7, Human SR-B3 (CD36) (human, UniProt P16671 30-439); test: as above
T7 construct: Bought protein; also called Platelet glycoprotein 4
T7 sequence (P16671 30-439 limits assumed): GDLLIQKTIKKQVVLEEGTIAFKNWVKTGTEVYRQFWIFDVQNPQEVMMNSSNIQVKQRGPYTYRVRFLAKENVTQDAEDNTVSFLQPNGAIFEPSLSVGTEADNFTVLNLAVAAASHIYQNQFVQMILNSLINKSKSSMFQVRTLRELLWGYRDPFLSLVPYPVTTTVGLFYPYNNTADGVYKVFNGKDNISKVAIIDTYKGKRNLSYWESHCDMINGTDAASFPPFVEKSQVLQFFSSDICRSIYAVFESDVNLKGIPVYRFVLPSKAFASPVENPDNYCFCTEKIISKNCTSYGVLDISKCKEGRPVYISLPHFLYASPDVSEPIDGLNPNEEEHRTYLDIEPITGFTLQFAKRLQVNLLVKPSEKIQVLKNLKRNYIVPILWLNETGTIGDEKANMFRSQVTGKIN

[2] = target: T1, human LOX1 on cells (human LOX1 …); test: competition with DyLight 649 AGE-BSA on human LOX1 CHO TREX cells, FMAT
[3] = target: T8, recombinant human LOX1 (R&D Systems) (human, UniProt P78380 61-273); test: competition with biotin CRP on plate-bound recombinant human LOX1, DELFIA
[4] = target: T1, human LOX1 on cells (human LOX1 …); test: competition with DyLight 649 oxLDL on hLOX1 CHO TREX cells (FMAT); row label not given, assay assigned by block order of Table 5
[5] = target: T1, human LOX1 on cells (human LOX1 …); test: competition with DyLight 649 AGE-BSA on hLOX1 CHO TREX cells (FMAT); row label not given, assay assigned by block order of Table 5
[6] = target: T8, recombinant human LOX1 (R&D Systems); test: competition with biotin CRP on immobilised recombinant hLOX1 (DELFIA); row label not given, assay assigned by block order of Table 5
[7] = target: T1, human LOX1 on cells (human LOX1 …); test: saturation binding of DyLight 649 labelled antibody on hLOX1 CHO TREX cells (FMAT); DyLight 649 labeled antibody on hLOX1 CHO TREX cells
[8] = target: T1, human LOX1 on cells (human LOX1 …); test: saturation binding of DyLight 649 labelled antibody on hLOX1 CHO TREX cells (FMAT)
[9] = target: T1, human LOX1 on cells (human LOX1 …); test: competition with DyLight 649 oxLDL on human LOX1 CHO TREX cells, FMAT
[10] = target: T9, human LOX1 SNP K167N variant on cells (K167N SNP transfected CHO TREX cells) (human, UniProt P78380 1-273); test: competition with DyLight 649 oxLDL on human LOX1 K167N CHO TREX cells, FMAT
T9 construct: whole, on cells; also called hLOX1 K167N; K167N hLOX1 CHO

[11] = target: T9, human LOX1 SNP K167N variant on cells …; test: competition with DyLight 649 oxLDL on K167N hLOX1 CHO TREX cells (FMAT); row label not given, assay assigned by block order of Table 5
[12] = target: T1, human LOX1 on cells (human LOX1 …); test: competition with DyLight 649 oxLDL on hLOX1 CHO TREX cells (FMAT); row label not given, assay assigned by block order of Table 5; first Mean/SD/n block of Table 2 (oxLDL/hLOX1 competition), n = 8

IC50 of inhibition of Cypher 5E oxLDL internalization in hLOX1 CHO TREX cells (row label not given; assay assigned by block order of Table 5) [1]: 772 pM
IC50 of inhibition of oxLDL-dependent ROS generation in hLOX1 CHO TREX cells (row label not given; assay assigned by block order of Table 5) [1]: 8.28 nM
IC50 (read off the curve) [2]: ~100 pM
IC50 (read off the curve) [3]: ~2 nM
IC50 [4]: 0.642 nM
IC50 [5]: 0.207 nM
IC50 [6]: 1.98 nM
Kd [7]: 0.8 nM
B1: LOX514 IgG1-TM (antibody, V domains shown)
VH: QVQLVQSGAEVKKPGASVKVSCKVSGYTLTELSMHWVRQAPGKGLEWMGGFDPEDGETIYAQKFQGRVTMTEDTSTDTAYMELSSLRSEDTAVYYCATPNGQQGKGVRGWDYYYGMDVWGRGTTVTVSS
VL: QSVVTQPPSVSGAPGQRVTISCTGSSSNIGAGYDVHWYQQLPGTAPKLLIYGNSNRPSGVPDRFSGSKSGTSASLAITGLQAEDEADYYCQSYDSSLSGWVFGGGTKLTVL
notes: Whole human IgG1-TM (L234F/L235E/P331S); Labelled with DyLight 649 in Assay 7; also called LOX10514-IgG1-TM; LOX10514 IgG1-TM
binding result (Human CLEC-7A (Dectin-1)): no binding (tested: 0.2 µg/mL (single concentration))
binding result (Human CLEC-1A): no binding (tested: 0.2 µg/mL (single concentration))
binding result (Human CLEC-4L (DC-SIGN)): no binding (tested: 0.2 µg/mL (single concentration))
binding result (Human CLEC-1B (CLEC-2)): no binding (tested: 0.2 µg/mL (single concentration))
binding result (Human SR-A1 (MSR)): no binding (tested: 0.2 µg/mL (single concentration))
binding result (Human SR-B3 (CD36)): no binding (tested: 0.2 µg/mL (single concentration))

IC50 of inhibition of Cypher 5E oxLDL internalization in hLOX1 CHO TREX cells (row label not given; assay assigned by block order of Table 5) [1]: 350 pM
IC50 of inhibition of oxLDL-dependent ROS generation in hLOX1 CHO TREX cells (row label not given; assay assigned by block order of Table 5) [1]: 6.22 nM
Kd [8]: 3.3 nM
IC50 (read off the curve) [9]: ~300 pM
IC50 (read off the curve) [2]: ~10 pM
IC50 (read off the curve) [3]: ~2 nM
IC50 (read off the curve) [10]: ~400 pM
IC50 [5]: 0.0873 nM
IC50 [6]: 4.69 nM
IC50 [11]: 0.246 nM
IC50 [12]: 0.131 nM
B2: LOX696 IgG1-TM (antibody, V domains shown)
VH: QVQLVQSGGGLVQPGRSLRLSCAASGFTFDDYAMHWVRQAPGKGLEWVSGISWNSGSIGYADSVKGRFTISRDNAKNSLYLQMNSLRAEDTAVYYCAREGNWNYDAFDIWGRGTTVTVSS
VL: QSALTQPASVSGSPGQSITISCTGTSSDVGGYNYVSWYQQHPGKAPKLMIYDVSNRPSGVSNRFSGSKSGNTASLTISGLQAEDEADYYCSSYTSSSTNWVFGGGTKLTVL
notes: Whole human IgG1-TM (L234F/L235E/P331S); Labelled with DyLight 649 in Assay 7; also called LOX10696-IgG1-TM; LOX10696 IgG1-TM
binding result (Human CLEC-7A (Dectin-1)): no binding (tested: 0.2 µg/mL (single concentration))
binding result (Human CLEC-1A): no binding (tested: 0.2 µg/mL (single concentration))
binding result (Human CLEC-4L (DC-SIGN)): no binding (tested: 0.2 µg/mL (single concentration))
binding result (Human CLEC-1B (CLEC-2)): no binding (tested: 0.2 µg/mL (single concentration))
binding result (Human SR-A1 (MSR)): no binding (tested: 0.2 µg/mL (single concentration))
binding result (Human SR-B3 (CD36)): no binding (tested: 0.2 µg/mL (single concentration))

Reference: patent US20210347900A1 (AstraZeneca / MedImmune, published 2021)
